The values below come from article PMC3217939.

The test concerns the target Cotton leaf curl Kokhran virus-Dabawali V2, His-tagged (Cotton leaf curl Kokhran virus-Dabawali). The test can be described thus: SPR; BIAcore 2000, 25 C; His-tagged V2 immobilised on Ni-NTA chip (about 340-350 RU); GST-CP 100-800 nM flowed at 20 ul/min, 90 s association; 10 mM HEPES pH 7.4, 150 mM NaCl, 50 uM EDTA, 0.005% surfactant P-20; global fit, 1:1 Langmuir model.

For the substance “GST-CP fusion protein (coat protein of Cotton leaf curl Kokhran virus-Dabawali) (natural protein)”, the equilibrium dissociation constant (Kd) (in general, a measure of binding affinity in units of concentration) stood at 2.6 µM; the koff – broadly, the rate constant with which the complex falls apart – is 0.00267 s⁻¹; the association rate constant (kon) – broadly, a measure of how fast the partners come together – came to 1030 M⁻¹ s⁻¹.
